Target: T1, activated soluble HLA-A*0201
T1 construct: MHC class I molecule that receives peptide in the fluorescence polarization assay (PolyTest); also called sHLA
Experiment: fluorescence polarization competition (PolyTest)

Row | binding result | Binder
1 | binds | VLQGVLPAL (also called VLQ(44)) [VLQGVLPAL, human chorionic gonadotropin-beta peptide 44-52]
2 | binds | GVLPALPQV (also called GVL(47)) [GVLPALPQV, human chorionic gonadotropin-beta peptide 47-55]
3 | binds | TMTRVLQGV (also called TMT(40)) [TMTRVLQGV, human chorionic gonadotropin-beta peptide 40-48]

Reference: patent publication US20090075304A1 (published 2009)
